# Experimental data taken from the NTF2 design screens of Basanta et al. (2020).
# Experiment: protease stability score; higher = more stable; yeast display proteolysis, trypsin and chymotrypsin;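 further: log10 excess protease needed over predicted unfolded state with 0 meaning unfolded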
row,Sequence,protease stability score
1,DTESLKKVEDVVNNNDKKKHERLLDKDVRIVVGDKEVRGREQAARDYKRFVNHADHIEIKRVRSNGDKLFIDRVVNFNGQTVHFVVTYVVKNGSIQEVSVKVTDKEHLKLYKEALR,0.196
2,DTEVIHVLKRIMHAINEGDESQVRKNADPNVKVRVGNKSIHGREQLVEQMRRDVEEIRLEYKSFDAKDSDGHARARVKYQNEFNGKPQEKDDRATAVAHNGHLKSIRWRVPEDDLRDQDT,-0.014
3,DTEVQQRVEHYLRLREYNSPEHLIEMVDPNAKIEIGNKEFHGMENYAHTMRKRVEEWRLEIKHISVTIRNGRVVARIDQEVDIDGNPVRYTYKVVYDAHNGNIKHIKNDVDPRQQQQQHK,0.176
4,DTHAVEVWRRVLRAKETGDEKTLEKNFDPNARFQVGDKTLHGMEQQVTENKRERDDLRVHVEIKEVKDQGDKAFVDMVMTAEVNGQPYRIRVEVVAVVRNGKIKELVINMDPRQQEQLDS,0.28
5,DTHDEKHVAQNVVDALRRNDPDQLRRMMDPNVHFEVGDKTIHGREDAARQLKEIKKNVDHFQVDDVTMSNGRVHAIIRVEINGQERRNVVQADVKNGHVKFQRIKDQ,-0.084
6,DTHDVKRILDELKTNDEDMNRHLVDPNAKLRIGDKEIHGREELTEFYHRFHKQVDSQRIKDVRVHGNRFRVEFEAVFNGQTVEASYEATFHNGKATSLRYTATSNEELKNLQKVMD,0.147
7,DTHKLREHARSMVEAMEDGDPQHLAKLMDENAKVTVGDKDVHGEEQAKRWAREWQKRFDHVEVDDLKVDNGRIRVKFHAQVNGREIFVIVKVEVRNGRIRSLSLEVRDEHVEKRLQD,0.909
8,DTHNFKKYMELLKALETGDERTARKMADPNAEFVIGDKEWHGMEEFAQTRVEQFKEQSIEIKILDYKDKNGQVHIRYRIRVNRNGKPDEKEVVVRIENHNGRIHHVEYRDTG,0.09
9,DTKERQNRAEEINKNFKEGNPHEYMSMLDKNASAQVGDKQVHGRERMSKRIEDIVRRADKLTIETFHVSGDKVEIVVQLIVNGTRVRMEVEIKFENGHAKHVEFNPEQDKQLKQ,0.421
10,DTQALKHARSVLEDNDWDKLQKLADKDARATVGDTTYHGREDIQTWLKRAEETVDHVNIKSISIDEDSISVRFVMNVNGKTVEMVITIQLHNGRIKFLRIQARSEEQEKTIHEVVD,-0.051
11,DTQEKLKHWWKHVQENIKTGDEDRLHEMVDPNASVQVGDKELHGREKIATTYVELMSRVDHVRIQITELEVHGNDFDLTFNYEADVNGRKEHDHYRVVLQEHNGQLRLVQMSEG,0.747
12,DTQKIVDDIAHEVVEVLKTGDPRKVVKLVDENARLQVGDKIVRGREDVKKRAEKENSRVDHREARVQEVTMHNGDVTIRFRVKDTHNGRSDSREYTIHLQEHDGKVFIQNMEDR,-0.261
13,DTRANEIWQDIVQALQTGDHERAIRLADPNVHFKVGDREVHGMTQFAHKQAQRHREARIELRVHSVRDRGDHVTVHYEMVVNVDGNPVKNTVTIYIVMRNGKLRSVEVSVDPRDVKRMRS,0.108
14,DTRARDIARRFWEAIRKNDPDKIKNQADENADFKVGDKTIHGMDHIIHHWEKVNKHARFQWERMEIKDSPNHVDVKYQFIVDVDGEPKTINATAQFQFHNGRIKNYEIQVDPEQFKEITK,0.523
15,DTRAREVLEKFLKALNKGDPDKMKRQADPNAKFHIGDKQVHGMDQMKEQIRTNQRHMKIDVQVQEVQVRNGRVVARMEVRQTHNGQPTSDILVVEAEVKNGRIKSAHWEKSS,-0.414
16,DTRDDERFKEFLKQIETNDPDKLVRMFDPNARIKVGDNELRGREQIHTFWKHVLDEQRVEYTDVKADFNGDKIEVDIRMVNQTNGEPEESRNKVEVKWHNGRLIDVIFRSDG,0.113
17,DTRKVQEMAKQFVQAMKDNDRTTLEKLADEDARIRVGEKELHGRDQVATMVAHMAKNIDHIRVKKLSVDENHVNLVFEVEHNGRRVRIILRITARNGRIKHIQVDPDRVRELEG,1.01
18,DTRSVMKDILKKIQENLKTGDPQHAADLFDPNVSVRVGDKELRGREQVRKKMKEERDRVDHVDMRIHDMKVSNGRVVVHYTWTVTVNGRKETNRAQLHADNEGDKALVTEVNVK,-0.106
19,DTRTDLRVAEKAAKAFHTNDPEKFKKQADPNAKAQYGDKTVHGMEDIVTRLKKFKDRVDHLRLNDIKSTGEKVDLNIQINVNGKNVEAKIDFHVRNGRLKTMKVDPNAVDAYRS,-0.19
20,DTRVARLVQEIMENVKKGSKEHLKQMVDPNVKIRVGDKTFHGREDFVTHLMDERKEARVDYHLKDVKDEGDKAFADVVQHVDKNGQPRNRHFIIDARAENGRLKEMRIENTK,-0.3
21,DTSDNKRAKELLDVLRTGDKEDFKNLVDENVRVVVGDKEVHGRDEIAEDISRKKKEMRYTFKVEDLQDHNGHVKVDMRQSSEHNGSPHHSDAKVTVNFENGKVHDVVLRDDG,-0.04
22,DTTTEIQRLVHDFVRKIKTGDPKEFERLVDEDARVRVGDKTVSGREEAVSHMVETAQRADTMDVNITSVSIHNGHAKVEFHLKYDHNGKDVEQTIIFVMVKRNGHFRLKEMVQK,1.26
23,EDDAITRWEELERQQETGNEEKAQEMVDPNVKMRYGDDNFHGREEYRKLVHKIRKNWREDVKDVRFEDHGEEIKVEYRVHQDINGKPVNADVTAEAQMSNGRLKKFVLRFSETQEKEIES,0.351
24,EDDRQRKFAKHANKVMETGDPREMEKLADENVRVVVGEKDVHGRERAQEWAKELSDRVDQIRIKDVDVDGNKVVIDLIVDHNGRQSTVTVDIEFHNGRAKSVTMHEK,-0.244
25,EDDVKRKQETWLKAVEDNNPEEAEEQADKHVQVVIGDKRIRGMEEMAHFIEHERRQADIRIQDYRISARGDKVRANISMHFNVNGTPEQASIKIQVTLSNGKIRKMVFRFDDQEFRRIQS,1.1

row,Sequence,protease stability score
1,EDEEAEEAIRIWQRNDPDQLNRMVDKDVSIHYGDKSYHGRHEVKKIWENYVKQVDRISFRHITRTGEHVSFEVEAVVNGKHVEFTASMEMKNGRAKDITFKATNEEDDKELQKNLE,0.28
2,EDEEAEKLSEIQRTGDEERIARNADPNVRVNVGDKRVHGREHLVSIAKRLSKNVDSLEIKHVEIQGERMVVRFVMQVNGKHIHAEMEIQMSNGRITSRNQRYTSEDVEQNWRDAVD,0.255
3,EDEELRKMVKQWEKGDPDQLLRYADEDAEFKVGDQQFHGREQLKHYIKRLKHRVDHFQIRKVTREGDRVRIDAFQVVNGRKIVYVFVLEVKNGRLKRLTMDFRDEKDERHFRTMLK,0.902
4,EDELLHILKEFIQAVNSGDSDKLRELMDPNVKAEYGDKEIHGREEIARQWRQIRHEIKFSWKHLHFEVKGDKLRVDFTVVMDVNGKPKHYRAVLYMKLKNGRITTLHVKMPEEEAKELNK,0.363
5,EDELRDQFKRFMNAWERGDPDKLRSLVDPNAEVVVGDKVYHGMTHAADEIVRHMKESRYTIKIESINVNGDNIEVTARVTADHNGKPQDASFHASARLENGHVTSMEVQIRE,0.916
6,EDELRTMVDQVMEAQKTGDFDKFIEQFDPNAHRRVGDKEVEGQEEMRHEQKRRDDNIRVDYNRMSVQVSNGVAKLTVHLNAHVNGKPVRLTIDIVFHARNGRFQSMQVDFTREQEKRKRS,-0.213
7,EDEMRKLAHKVMTAHQTGDPDRIARLMDPNVQVKVGDKTIHGKHQLKRKLTKDLKEMRVHIKSVKFSVQGDKVEVRANLVSRHNGQPHESTVDVRITARGDKLKHLNNQETQ,-0.263
8,EDENMETMKDLLRAWQEGDEDRAQENADKDVTVEYGDRSFHGRSQLHRLVKERREKMRVQIKDVRFDISGDKIKIDLTYTKDHNGRPETRRVRIIARVNNGKVKFVRLDEHG,0.652
9,EDENRKRIEHFLEVKEHGNPDEAKRLADPNVHLKVGDQTVHGRSQLSKILEKEVKEIRFSMQIDSYDDRPGRIKMSATMVLNINGQPIKVTFDAEYVLDNGRISHVEIRMDPTRLHEIKK,0.64
10,EDENRSNIEDMIRAWNQNNPDEWRELADPNVKVQIGEKSIRGREEIAKDLKQMHKEIEVHFNLKRVRVQGDKAEVEMEFSNNHNGKPRSDNVVYDVLVDNGRIKSVKQNQVS,-0.141
11,EDENTRKFVQYLKILKDGNEQELKKDMDPNAHIKVGDKTLSGMDKITDDVRRKLEEMTVDFTTVSAKAENGRLDVNMSLNNEVNGRPRSDDVTIEVRIHNGKFDHIIYHMDPNRLKEVER,-0.104
12,EDEVLKELLEAVRHNDPDKIKELIDPNARFRVGDKSLHGMEEAAEQYARMMKRVDHIQIDSMSAHGDTFTVDQRFHFDGRTLSVTIRIRIHNGRIEELVIEVRSEEDKKNLDNLLS,-0.097
13,EDEVNKILEDVATAIRTGDPDRVVENLDPNAKVQVGDKTLDGQKEVREFFERNQREASVRLHVTSVHVNGDKVKMKANYQQNRNGNPDFKDVDVTAHAHNGKLKVMEHRRDG,-0.451
14,EDEVRQRAEEFLKAWERGDPETLMRMADPNARFKIGDKEVHGREDYHREHKRQRDQMRYRLHSYEVSASGDKVHVDVSYNMNNNGQPNNSRQTFSARVDNGKIKELNVQSTG,-0.061
15,EDHTLREFQKNWQHNNPDELEKMMDPNVKIVIGDKKYHGKEEAKRINKQIVDQADHIDIRRVEVSGNKLEIRMVLNVNGNTRELVVIFKLHNGRIKHVEFKFTDERQKNFQEEMLQ,1.08
16,EDKAKTLLQQYMEAVHQGDPKQVEEMLDPNAQVVIGDKSVRGQNQIQQMVRKLHQHARIDIHVKDLKADGNNVHLTFSQKVEVNGRPERDEATATMVVDNGRAQYLQIEMDETFQRQLEK,-0.341
17,EDNRLQEIMEKFIRLMQTGDDHTAANLFDEDARIEYGDHSIRGREEFQKYAKELKDRVDHFDVQTIKNRGDEVHIDVNIHVDGKRVRVNMVVQAENGKVKKLRLDPEVVRHMEK,1.3
18,EDQVIRMVKELWKALRKNNPEKFKDLADKNARFEYGDKHVRGRENMQERMEQQVRDQEVDMRVERVEDRGDHVDVKFEKVVNHNGTPSSHSMTAVYVAENGRLKNVRVKETK,-0.103
19,EDRAQENLHELLKAIQQGDEDSVESLLDKDVKIQVGDKYIHGRENYAEHVRKTRQEIRVNYRIESYSVHNGRAKMTFRANRDDNGKPETWKAQATMEVDNGRITFIHRNKRG,-0.045
20,EDRDKVRRAIKRMLDVMSTGDEDKLREYADENVKINVGDKDVHGREEAARFLKTHADQYDHIDQRIQDVKKENGQVEVRREMEATHNGHTHRDREHIVVEIRGDNMKIKSIQRQ,-0.409
21,EDRDQAKHIIKEIMRAIQTGDRKHAMRQVDPNVRIHVGDKVLEGREEFMKWVKDLRDDVDHFHLRIHDMHVENGQLTADAEFVVDHNGQRRKQRMDVVFLVHGDKVRLLRLQEK,1.4
22,EDRERAKELVKRLTDAFRTNNPDDYVRQAPPDVTMQVGDKQYHGRSKVKEWIKQILDRVDHLKIELVDVKRSGEKLRFKAEYHYEHNGKTDRNTMEMVFTIQGDKMKIDDATQQ,0.134
23,EDRHARRVANDFVRAVRKGDETRLKEQFDEDAEVQVGDTTYTGKERVVKHAQDFANSVDHLDVTDLKVNEDHASLSARVNINGRQDTIRIELRVHNGRLKRVNYDTQ,-0.032
24,EDRQNQEVNKKAQKGDWQHLRELADKDVTLQVGDKQYHGREKFQELLKKLETSVDRFKVDSITFHNGKVKVRAQAVVNGQKIEFVIIITFHNGRAKSMRIQARDEDLEKELLKMLS,0.944
25,EDTALKIARTLFDILESNNPDEFNKLADPNARVDVGDKKIHGREEIKKQMETEIQQLRVHYEIKRYDSRPNRAHVIADVEVNHNGQPQSHKLVMRLHFKNGKVTEIKFEYRK,-0.053
